Results reported in patent CN111434684A.
Where “and” joins values, the source holds several entries; their conditions need not be identical. Equal values may be shown once.

Experiments:
[1] = biological target: H7N9病毒的HA蛋白(购自ACROBiosystems) (H7N9 influenza virus); assay: ELISA, HA coated, negative control
[2] = biological target: H7N9病毒的HA蛋白(购自ACROBiosystems) (H7N9 influenza virus); assay: ELISA, HA coated, supernatant of 293F cells transfected with 5Q2 H and L genes
[3] = biological target: H7N9病毒 A/Anhui/1/2013 的血凝素HA (on live virus) (influenza A virus A/Anhui/1/2013 (H7N9)); assay: cell-based or functional assay

阴性对照 (ELISA, wells G, H)
450nm [1]: 0.0675 OD450 and 0.0554 OD450

B1: 抗H7N9全人源单克隆抗体5Q2 (antibody, V domains shown)
VH: QVQLVESGAEVKKPGASVKVSCKASGYIFTNYDINWVRQATGQGLEWMGWMSPDNGDTGFAQKFQGRVTMTRNTSITTAYMELSSLTSEDTAVYYCATGSADCNGGNCYSWFDPWGQGTLVTVSS
VL: SSELTQDPAVSVALGQTVRITCQGDRVRNYYASWYQQKPGQAPVLVIYGKSNRPSGIPDRFSGSSSGNTASLTITGAQAEDEADYYCSNRDTNGYHVLFGGGTKLTVLV
450nm [2]: 1.23 OD450 and 0.936 OD450 and 0.723 OD450 | 中和实验 (微量中和-ELISA, MDCK细胞) IC50 [3]: 5.52 µg/mL
